B1: modified B7 antibody: B7 antibody with a cysteine residue added to the heavy-chain variable region (SEQ ID NO: 8); light-chain SEQ ID NO: 11 (antibody, V domains shown)
VH: MGWSYIILFLVATAADVHSQVQLQEWGAGLLKPSETLSLTCAVSGGSLSGHYWSWVRLPPGKGLEWIGEISHSGNTNYNSSLKSRASISIDTSKNEYSLNLKSVTAVDTAVYYCARFYGDYPSSYGMDVWGQGTTVTVSSC
VL: MGWSYIILFLVATAADVHSQSALTQPASVSGSPGQSITISCTGTISDIGTYDFVSWYQHKPGKAPKLLIFDVNNRPSGVSSRFSGSKSDNTASLSISGFQAEDEADYYCSSYTDNRGLVLFGGGTKLTVLRS
modifications: a heavy chain variable region with extra cysteine; a light chain variable region
B2: B7 antibody: c-Met-specific human whole IgG from B7 phage variable region; heavy-chain variable region SEQ ID NO: 7, light-chain SEQ ID NO: 11 (antibody, V domains shown)
VH: MGWSYIILFLVATAADVHSQVQLQEWGAGLLKPSETLSLTCAVSGGSLSGHYWSWVRLPPGKGLEWIGEISHSGNTNYNSSLKSRASISIDTSKNEYSLNLKSVTAVDTAVYYCARFYGDYPSSYGMDVWGQGTTVTVSS
VL: B1 VL
modifications: a heavy chain variable region; a light chain variable region

Biological target: T1, C-Met (Homo sapiens, UniProt P08581)
T1 construct: A549 cells, known to readily express the c-Met receptor; endogenous in cells; host or cells: A549 (endogenous); Cos-7 cells overexpressing c-Met
Experiment: FACS analysis of specific binding to c-Met
Conditions: A549 cells and Cos-7 cells that overexpressed c-Met, antibody 1:100, 4° C., 1 hour, FIG. 11
Method: Whether the human modified B7 antibody according to the present invention easily binds specifically to c-Met was examined by FACS analysis. Each of A549 cells, known to readily express the c-Met receptor, and Cos-7 cells that overexpressed c-Met, was prepared, washed twice with PBS, detached by treatment with trypsin, washed again with PBS, and then suspended in PBS (PBA buffer) containing 1% BSA protein. Then, the cells were treated with the purified modified B7 antibody of Example 2 at 1:100 at 4° C. for 1 hour, after which the cells were washed with PBA buffer and precipitated by centrifugation at 8000 rpm for 1 minute. The washing and precipitation process was repeated three times. Then, the modified B7 antibody was treated for 20 minutes with a 1:100 dilution of secondary antibody (Invitrogen, Alexa Fluor 488 goat anti-human IgG, #A11013) that detects human antibody. The cells were washed in the same manner as described above and analyzed by FACS analyzer (BD Cantoll Flow Cytometer), and the results of the analysis are shown in FIG. 11.

T1 sequence (P08581 25-1390): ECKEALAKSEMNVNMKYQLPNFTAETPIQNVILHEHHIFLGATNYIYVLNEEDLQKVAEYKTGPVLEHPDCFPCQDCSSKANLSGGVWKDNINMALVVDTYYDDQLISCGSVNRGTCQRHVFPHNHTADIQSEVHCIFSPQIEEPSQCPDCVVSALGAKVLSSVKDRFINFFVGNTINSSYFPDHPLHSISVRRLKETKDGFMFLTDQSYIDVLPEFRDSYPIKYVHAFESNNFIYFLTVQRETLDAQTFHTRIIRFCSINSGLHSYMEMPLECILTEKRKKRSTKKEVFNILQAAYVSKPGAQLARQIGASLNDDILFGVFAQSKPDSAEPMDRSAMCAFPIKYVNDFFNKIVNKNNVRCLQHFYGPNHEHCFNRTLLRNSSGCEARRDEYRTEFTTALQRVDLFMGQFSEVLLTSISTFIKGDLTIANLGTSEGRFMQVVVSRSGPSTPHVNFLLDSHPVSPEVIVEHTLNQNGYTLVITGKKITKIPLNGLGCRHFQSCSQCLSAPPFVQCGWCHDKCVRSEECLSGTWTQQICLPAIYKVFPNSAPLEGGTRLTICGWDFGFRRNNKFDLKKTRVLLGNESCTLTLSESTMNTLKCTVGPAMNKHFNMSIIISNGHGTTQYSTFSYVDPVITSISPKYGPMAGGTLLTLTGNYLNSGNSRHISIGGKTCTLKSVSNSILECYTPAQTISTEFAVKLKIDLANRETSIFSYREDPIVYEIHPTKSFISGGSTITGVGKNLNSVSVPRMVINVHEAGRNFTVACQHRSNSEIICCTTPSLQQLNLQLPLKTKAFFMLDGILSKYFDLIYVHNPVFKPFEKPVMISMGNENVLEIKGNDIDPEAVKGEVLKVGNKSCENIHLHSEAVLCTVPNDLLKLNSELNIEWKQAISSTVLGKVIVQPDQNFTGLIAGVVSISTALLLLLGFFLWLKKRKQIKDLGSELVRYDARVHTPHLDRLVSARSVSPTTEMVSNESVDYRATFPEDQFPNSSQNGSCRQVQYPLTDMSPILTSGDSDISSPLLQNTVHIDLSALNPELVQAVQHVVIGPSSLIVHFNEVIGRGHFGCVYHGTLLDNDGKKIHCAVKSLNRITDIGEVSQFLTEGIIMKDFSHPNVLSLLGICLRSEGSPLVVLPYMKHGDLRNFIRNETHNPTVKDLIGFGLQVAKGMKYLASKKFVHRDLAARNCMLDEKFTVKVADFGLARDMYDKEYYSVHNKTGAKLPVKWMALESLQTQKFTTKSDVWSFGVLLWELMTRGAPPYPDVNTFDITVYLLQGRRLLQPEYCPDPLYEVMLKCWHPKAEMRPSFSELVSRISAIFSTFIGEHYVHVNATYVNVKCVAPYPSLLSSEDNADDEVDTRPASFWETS

Molecule	specific binding to c-Met by FACS	specific binding to c-Met by FACS (listed as original B7 antibody)
B1	did bind specifically to c-Met	
B2	bind specifically to c-Met	specifically recognizes c-Met

— US9364556B2, “Drug conjugate comprising drug linked to human c-Met antibody, and use therefor” (Korea Research Institute of Bioscience and Biotechnology, priority 2011, dated 2016)
